Results taken from patent US20070244040.

Columns and labels:
Livin α = biological target: T1, Livin α
T1 chain: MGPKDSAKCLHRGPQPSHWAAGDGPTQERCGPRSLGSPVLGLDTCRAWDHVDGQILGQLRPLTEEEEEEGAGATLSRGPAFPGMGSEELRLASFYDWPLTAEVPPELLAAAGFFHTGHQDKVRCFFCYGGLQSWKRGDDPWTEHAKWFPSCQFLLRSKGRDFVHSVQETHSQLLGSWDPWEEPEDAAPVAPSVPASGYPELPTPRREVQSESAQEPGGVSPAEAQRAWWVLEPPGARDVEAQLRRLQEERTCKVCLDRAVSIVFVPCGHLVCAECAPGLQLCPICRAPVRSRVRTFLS

6×His-Livin β = biological target: T2, 6×His-Livin β
T2 chain: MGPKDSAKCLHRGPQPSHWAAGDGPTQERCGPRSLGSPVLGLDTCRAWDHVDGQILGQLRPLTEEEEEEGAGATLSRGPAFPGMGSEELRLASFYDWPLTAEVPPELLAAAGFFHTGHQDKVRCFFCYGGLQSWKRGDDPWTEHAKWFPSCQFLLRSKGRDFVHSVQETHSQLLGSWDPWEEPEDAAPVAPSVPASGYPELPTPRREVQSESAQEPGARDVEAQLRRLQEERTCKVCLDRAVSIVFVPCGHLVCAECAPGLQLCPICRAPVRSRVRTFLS

6×His-Livin α = biological target: T3, 6×His-Livin α
T3 chain: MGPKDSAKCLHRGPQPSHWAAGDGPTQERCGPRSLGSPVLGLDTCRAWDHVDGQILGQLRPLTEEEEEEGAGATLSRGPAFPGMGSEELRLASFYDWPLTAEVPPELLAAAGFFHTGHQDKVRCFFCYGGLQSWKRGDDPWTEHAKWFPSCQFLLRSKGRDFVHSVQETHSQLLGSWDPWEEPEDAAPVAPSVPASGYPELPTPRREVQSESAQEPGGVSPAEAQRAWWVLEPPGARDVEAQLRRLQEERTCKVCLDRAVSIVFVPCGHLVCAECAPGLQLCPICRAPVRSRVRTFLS

Livin β = biological target: T4, Livin β
T4 chain: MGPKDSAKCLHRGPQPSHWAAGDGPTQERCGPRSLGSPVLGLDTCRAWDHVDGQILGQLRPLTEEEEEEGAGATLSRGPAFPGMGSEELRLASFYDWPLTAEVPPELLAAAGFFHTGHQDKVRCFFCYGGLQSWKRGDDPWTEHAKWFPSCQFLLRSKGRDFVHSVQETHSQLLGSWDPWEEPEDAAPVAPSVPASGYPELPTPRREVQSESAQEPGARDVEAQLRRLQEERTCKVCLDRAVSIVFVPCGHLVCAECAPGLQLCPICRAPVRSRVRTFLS

B1: caspase 7 (protein)
chain: AKPDRSSFVPSLFSKKKKNVTMRSIKTTRDRVPTYQYNMNFEKLGKCIIINNKNFDKVTGMGVRNGTDKDAEALFKCFRSLGFDVIVYNDCSCAKMQDLLKKASEEDHTNAACFACILLSHGEENVIYGKDGVTPIKDLTAHFRGDRCKTLLEKPKLFFIQACRGTELDDGIQADSGPINDTDANPRYKIPVEADFLFAYSTVPGYYSWRSPGRGSWFVQALCSILEEHGKDLEIMQILTRVNDRVARHFESQSDDPHFHEKKQIPCVVSMLTKELYFSQ
Question: For B1, which “in vitro cleavage of in vitro translated protein, Western blot” value (Livin α) is on record?
Answer: underwent cleavage similar to the wild-type protein by caspase 3 and 7

Question: What about the “in vitro cleavage, Western blot with anti-Livin antibody” value (“in vitro cleavage, Western blot” for short) (6×His-Livin β) of the same protein?
Answer: The most efficient cleavage was observed when caspase 7 was used, resulting in the complete cleavage of the recombinant Livin β

Question: What about the “in vitro cleavage, Western blot” value (6×His-Livin α) of the same protein?
Answer: In contrast to the marked efficiency of caspase 7, caspase 6 was not able to cleave Livin at low concentrations (FIG. 4b)

Question: And the “in vitro cleavage of in vitro translated protein, Western blot” value (Livin β)?
Answer: underwent cleavage similar to the wild-type protein by caspase 3 and 7

B2: caspase 8 (protein)
chain: SESQTLDKVYQMKSKPRGYCLIINNHNFAKAREKVPKLHSIRDRNGTHLDAGALTTTFEELHFEIKPHDDCTVEQIYEILKIYQLMDHSNMDCFICCILSHGDKGIIYGTDGQEAPIYELTSQFTGLKCPSLAGKPKVFFIQACQGDNYQKGIPVETDSEEQPYLEMDLSSPQTRYIPDEADFLLGMATVNNCVSYRNPAEGTWYIQSLCQSLRERCPRGDDILTILTEVNYEVSNKDDKKNMGKQMPQPTFTLRKKLVFPSD
Question: What does the source list for B2?
Answer: in vitro cleavage, Western blot with anti-Livin antibody (6×His-Livin β): Treatment of recombinant Livin α and β with caspase 8 had no effect even when 90 units of this enzyme were used; in vitro cleavage, Western blot with anti-Livin antibody (6×His-Livin α): Treatment of recombinant Livin α and β with caspase 8 had no effect even when 90 units of this enzyme were used

B3: caspase 9 (protein)
chain: MDEADRRLLRRCRLRLVEELQVDQLWDALLSRELFRPHMIEDIQRAGSGSRRDQARQLIIDLETRGSQALPLFISCLEDTGQDMLASFLRTNRQAAKLSKPTLENLTPVVLRPEIRKPEVLRPETPRPVDIGSGGFGDVGALESLRGNADLAYILSMEPCGHCLIINNVNFCRESGLRTRTGSNIDCEKLRRRFSSLHFMVEVKGDLTAKKMVLALLELAQQDHGALDCCVVVILSHGCQASHLQFPGAVYGTDGCPVSVEKIVNIFNGTSCPSLGGKPKLFFIQACGGEQKDHGFEVASTSPEDESPGSNPEPDATPFQEGLRTFDQLDAISSLPTPSDIFVSYSTFPGFVSWRDPKSGSWYVETLDDIFEQWAHSEDLQSLLLRVANAVSVKGIYKQMPGCFNFLRKKLFFKTS
Question: B3 was tested. Which “in vitro cleavage, Western blot” value (6×His-Livin β) did it give?
Answer: incubation with high concentrations of caspase 9 resulted in a weak cleavage, suggesting that caspase 9 might cleave Livin with a very low affinity

Question: What about the “in vitro cleavage, Western blot” value (6×His-Livin α) of the same protein?
Answer: incubation with high concentrations of caspase 9 resulted in a weak cleavage, suggesting that caspase 9 might cleave Livin with a very low affinity

B4: caspase 3 (protein)
chain: SGISLDNSYKMDYPEMGLCIIINNKNFHKSTGMTSRSGTDVDAANLRETFRNLKYEVRNKNDLTREEIVELMRDVSKEDHSKRSSFVCVLLSHGEEGIIFGTNGPVDLKKITNFFRGDRCRSLTGKPKLFIIQACRGTELDCGIETDSGVDDDMACHKIPVEADFLYAYSTAPGYYSWRNSKDGSWFIQSLCAMLKQYADKLEFMHILTRVNRKVATEFESFSFDATFHAKKQIPCIVSMLTKELYFYH
Question: With B4 as the protein, how does the “in vitro cleavage of in vitro translated protein, Western blot” value (Livin α) read?
Answer: underwent cleavage similar to the wild-type protein by caspase 3 and 7

Question: What about the “in vitro cleavage, Western blot” value (6×His-Livin β) of the same protein?
Answer: effector caspases 3, 7, and relatively high concentrations of caspase 6, but not the initiator caspases 8 and 9, cleaved Livin β

Question: And the “in vitro cleavage of in vitro translated protein, Western blot” value (Livin β)?
Answer: underwent cleavage similar to the wild-type protein by caspase 3 and 7

B5: caspase 6 (protein)
chain: AFYKREMFDPAEKYKMDHRRRGIALIFNHERFFWHLTLPERRGTCADRDNLTRRFSDLGFEVKCFNDLKAEELLLKIHEVSTVSHADADCFVCVFLSHGEGNHIYAYDAKIEIQTLTGLFKGDKCHSLVGKPKIFIIQACRGNQHDVPVIPLDVVDNQTEKLDTNITEVDAASVYTLPAGADFLMCYSVAEGYYSHRETVNGSWYIQDLCEMLGKYGSSLEFTELLTLVNRKVSQRRVDFCKDPSAIGKKQVPCFASMLTKKLHFFPKSN
Question: Which results are given for B5?
Answer: in vitro cleavage of in vitro translated protein, Western blot (Livin α): it did not cleave any of the Livin isoforms that were translated in eukaryotic in vitro system; in vitro cleavage, Western blot with anti-Livin antibody (6×His-Livin β): relatively high concentrations of caspase 6 ... cleaved Livin β; in vitro cleavage, Western blot with anti-Livin antibody (6×His-Livin α): caspase 6 was not able to cleave Livin at low concentrations (FIG. 4b); in vitro cleavage of in vitro translated protein, Western blot (Livin β): it did not cleave any of the Livin isoforms that were translated in eukaryotic in vitro system
